# Measurements taken from article doi:10.1101/2022.05.04.490663 (bioRxiv, 2022).
# T1: Spt6 (239-1451), untagged (S. cerevisiae, UniProt P23615 239-1451)
# T1 sequence (looked up): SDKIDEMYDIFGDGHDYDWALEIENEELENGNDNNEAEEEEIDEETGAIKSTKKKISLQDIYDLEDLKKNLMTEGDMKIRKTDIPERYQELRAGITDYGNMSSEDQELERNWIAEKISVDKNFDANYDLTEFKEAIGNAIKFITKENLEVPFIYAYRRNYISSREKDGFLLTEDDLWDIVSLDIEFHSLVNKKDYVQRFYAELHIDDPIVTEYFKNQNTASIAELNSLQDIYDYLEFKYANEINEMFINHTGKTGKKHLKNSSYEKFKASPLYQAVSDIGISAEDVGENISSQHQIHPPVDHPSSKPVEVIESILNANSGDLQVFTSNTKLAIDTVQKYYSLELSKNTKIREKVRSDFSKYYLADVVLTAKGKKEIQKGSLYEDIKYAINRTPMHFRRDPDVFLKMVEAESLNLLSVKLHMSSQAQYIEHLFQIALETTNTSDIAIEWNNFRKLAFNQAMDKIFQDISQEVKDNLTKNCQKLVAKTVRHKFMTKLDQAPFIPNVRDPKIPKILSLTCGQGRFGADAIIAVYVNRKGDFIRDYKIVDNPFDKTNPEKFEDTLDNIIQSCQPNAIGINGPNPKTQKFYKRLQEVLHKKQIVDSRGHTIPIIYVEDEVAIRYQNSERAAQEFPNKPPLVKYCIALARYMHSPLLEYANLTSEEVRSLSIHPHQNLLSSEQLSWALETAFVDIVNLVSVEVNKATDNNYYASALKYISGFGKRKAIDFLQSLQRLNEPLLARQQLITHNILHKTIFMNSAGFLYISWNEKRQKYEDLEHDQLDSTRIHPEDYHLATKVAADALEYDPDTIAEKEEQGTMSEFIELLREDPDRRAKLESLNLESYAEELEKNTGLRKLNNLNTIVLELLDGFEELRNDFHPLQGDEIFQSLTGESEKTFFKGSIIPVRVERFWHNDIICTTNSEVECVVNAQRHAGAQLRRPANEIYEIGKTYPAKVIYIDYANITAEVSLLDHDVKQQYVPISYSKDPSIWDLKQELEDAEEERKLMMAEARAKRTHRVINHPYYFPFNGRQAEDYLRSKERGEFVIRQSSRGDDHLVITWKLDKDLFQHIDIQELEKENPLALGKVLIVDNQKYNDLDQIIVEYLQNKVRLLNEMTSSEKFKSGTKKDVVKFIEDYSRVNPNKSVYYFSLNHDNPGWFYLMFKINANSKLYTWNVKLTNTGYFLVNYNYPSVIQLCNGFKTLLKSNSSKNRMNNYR
# T2: 10xHis-mRuby2-Spt6 (239-1451) (S. cerevisiae, UniProt P23615 239-1451)
# T2 sequence (looked up): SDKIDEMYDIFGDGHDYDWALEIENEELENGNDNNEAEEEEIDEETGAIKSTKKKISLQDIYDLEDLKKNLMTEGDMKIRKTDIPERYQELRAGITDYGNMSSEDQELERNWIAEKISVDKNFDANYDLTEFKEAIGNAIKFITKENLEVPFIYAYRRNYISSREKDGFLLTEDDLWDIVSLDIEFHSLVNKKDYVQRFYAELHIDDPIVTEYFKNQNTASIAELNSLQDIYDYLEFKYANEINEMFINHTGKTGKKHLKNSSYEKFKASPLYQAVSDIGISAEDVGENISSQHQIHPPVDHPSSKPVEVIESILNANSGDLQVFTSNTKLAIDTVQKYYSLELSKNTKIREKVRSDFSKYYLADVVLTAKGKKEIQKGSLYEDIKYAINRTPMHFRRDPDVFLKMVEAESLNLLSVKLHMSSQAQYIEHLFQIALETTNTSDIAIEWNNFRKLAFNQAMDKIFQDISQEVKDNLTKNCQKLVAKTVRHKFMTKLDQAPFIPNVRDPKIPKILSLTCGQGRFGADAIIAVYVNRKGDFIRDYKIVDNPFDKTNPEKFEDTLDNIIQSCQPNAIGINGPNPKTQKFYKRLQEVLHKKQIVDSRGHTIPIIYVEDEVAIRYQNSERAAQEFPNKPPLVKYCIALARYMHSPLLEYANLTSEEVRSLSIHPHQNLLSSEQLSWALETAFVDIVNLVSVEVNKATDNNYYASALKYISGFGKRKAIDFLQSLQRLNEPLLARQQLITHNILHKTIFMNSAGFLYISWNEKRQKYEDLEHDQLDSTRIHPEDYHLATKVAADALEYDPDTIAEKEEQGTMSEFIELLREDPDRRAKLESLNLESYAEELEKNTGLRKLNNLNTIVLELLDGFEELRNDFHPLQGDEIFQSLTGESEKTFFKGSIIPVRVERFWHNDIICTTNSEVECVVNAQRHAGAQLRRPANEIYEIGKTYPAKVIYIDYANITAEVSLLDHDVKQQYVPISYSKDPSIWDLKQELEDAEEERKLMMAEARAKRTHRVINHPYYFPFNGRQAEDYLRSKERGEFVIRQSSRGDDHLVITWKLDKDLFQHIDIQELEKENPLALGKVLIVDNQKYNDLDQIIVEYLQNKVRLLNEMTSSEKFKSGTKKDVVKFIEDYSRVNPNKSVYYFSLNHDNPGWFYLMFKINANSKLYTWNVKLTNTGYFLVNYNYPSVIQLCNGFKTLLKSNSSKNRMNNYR
# What was measured:
# [1] = target: T1, Spt6 (239-1451), untagged; assay: fluorescence polarisation
# [2] = target: T2, 10xHis-mRuby2-Spt6 (239-1451); assay: native gel or EMSA
Kd [1] [µM],Kd [2] [µM],binding result [2],Binder
0.77,~0.32,–,"10xHis-mClover-Cdc73 (full-length Cdc73) (natural protein, S. cerevisiae, UniProt Q06697 1-393, looked up) MANSLDRLREHLKNGDKLVLKNNEGQSTDDITKATMVETLSSDGSTQDSFPLNEETEIEIDGSLVQLRIIVHCWMNKDSSAADYLADCQNKQLTNVSFLQRTDLINWLSGNTESSQYLKAPGQKGETSDKVDIENKTLAGELSTVKSTTSASLENDSEVSDPVVVETMKHERILVDHNSALRGAKPINFGYLIKDAELKLVQSIKGSLRGSKLPPGHKGAHGRISKTNGSSGGPRKDPIILIPSAASSILTVANIKQFLLESKYVNPRNLPSVPNGLVNIEKNFERISRPIRFIIVDNTRMFTKPEYWDRVVAIFTTGHTWQFNNYQWNSPQELFQRCKGYYFHFAGDSVPQHVQQWNVEKVELDKNKRFKDVEVVRYFWHSLEKELISRGYR"
–,–,binds,"10xHis-mClover-Cdc73 with the W321A substitution (natural protein, S. cerevisiae, UniProt Q06697 1-393, looked up) MANSLDRLREHLKNGDKLVLKNNEGQSTDDITKATMVETLSSDGSTQDSFPLNEETEIEIDGSLVQLRIIVHCWMNKDSSAADYLADCQNKQLTNVSFLQRTDLINWLSGNTESSQYLKAPGQKGETSDKVDIENKTLAGELSTVKSTTSASLENDSEVSDPVVVETMKHERILVDHNSALRGAKPINFGYLIKDAELKLVQSIKGSLRGSKLPPGHKGAHGRISKTNGSSGGPRKDPIILIPSAASSILTVANIKQFLLESKYVNPRNLPSVPNGLVNIEKNFERISRPIRFIIVDNTRMFTKPEYWDRVVAIFTTGHTAQFNNYQWNSPQELFQRCKGYYFHFAGDSVPQHVQQWNVEKVELDKNKRFKDVEVVRYFWHSLEKELISRGYR"
